Where no end group is shown, it is not given here.
Biological target: ECE-1 (Homo sapiens, UniProt P42892)
Experiment: not given
Conditions: 10 nmol peptide in 750 µl 0.2 M acetate buffer pH 5.5 (GLP-1 also at neutral pH), 0.25 µg recombinant ECE-1, 37 °C, up to 24 h, RP-HPLC C18, UV 214 nm, peak area with versus without enzyme, n = 2-3

Chain of ECE-1 (P42892 whole entry, species assumed): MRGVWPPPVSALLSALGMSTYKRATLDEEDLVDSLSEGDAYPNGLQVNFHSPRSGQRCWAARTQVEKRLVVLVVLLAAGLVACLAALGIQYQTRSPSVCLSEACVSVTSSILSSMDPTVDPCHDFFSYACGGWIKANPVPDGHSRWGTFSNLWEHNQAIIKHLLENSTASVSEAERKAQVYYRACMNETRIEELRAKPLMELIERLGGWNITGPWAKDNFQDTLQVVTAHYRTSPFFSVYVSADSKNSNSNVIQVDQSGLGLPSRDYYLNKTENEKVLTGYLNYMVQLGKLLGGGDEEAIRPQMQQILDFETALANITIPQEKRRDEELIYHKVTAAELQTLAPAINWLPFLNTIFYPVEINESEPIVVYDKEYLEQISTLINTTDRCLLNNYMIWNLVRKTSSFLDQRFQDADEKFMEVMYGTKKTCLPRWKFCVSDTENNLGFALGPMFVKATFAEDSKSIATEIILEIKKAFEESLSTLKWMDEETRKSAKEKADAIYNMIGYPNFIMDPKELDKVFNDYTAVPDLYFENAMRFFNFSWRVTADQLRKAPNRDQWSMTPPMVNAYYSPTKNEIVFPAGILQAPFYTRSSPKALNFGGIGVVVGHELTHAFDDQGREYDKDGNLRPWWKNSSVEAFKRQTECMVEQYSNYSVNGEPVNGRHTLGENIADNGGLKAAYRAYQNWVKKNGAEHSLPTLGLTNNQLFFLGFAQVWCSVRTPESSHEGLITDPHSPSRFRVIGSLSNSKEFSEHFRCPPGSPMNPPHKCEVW

In the case of CC[C@H](C)[C@H](NC(=O)[C@H](Cc1ccccc1)NC(=O)[C@H](CC(C)C)NC(=O)[C@H](CCCNC(=N)N)NC(=O)[C@@H](NC(=O)[C@H](C)NC(=O)[C@H](CCC(=O)O)NC(=O)[C@H](CCC(=O)O)NC(=O)[C@H](CCC(=O)O)NC(=O)[C@H](CC(C)C)NC(=O)[C@H](Cc1ccc(O)cc1)NC(=O)[C@H](CO)NC(=O)[C@H](CO)NC(=O)[C@@H](NC(=O)[C@H](CC(=O)O)NC(=O)[C@H](CO)NC(=O)[C@@H](NC(=O)[C@H](Cc1ccccc1)NC(=O)[C@@H](NC(=O)CNC(=O)[C@H](CCC(=O)O)NC(=O)[C@H](C)NC(=O)[C@@H](N)Cc1c[nH]cn1)[C@@H](C)O)[C@@H](C)O)C(C)C)C(C)C)C(=O)N[C@@H](CCC(=O)O)C(=O)N[C@@H](Cc1c[nH]c2ccccc12)C(=O)N[C@@H](CC(C)C)C(=O)N[C@@H](CCCCN)C(=O)N[C@@H](CC(N)=O)C(=O)NCC(=O)NCC(=O)N1CCC[C@H]1C(=O)N[C@@H](CO)C(=O)N[C@@H](CO)C(=O)NCC(=O)N[C@@H](C)C(=O)N1CCC[C@H]1C(=O)N1CCC[C@H]1C(=O)N1CCC[C@H]1C(=O)N[C@@H](CO)C(N)=O [Chi3], the “In vitro peptide degradation by / resistance to ECE-1 (in words)” value is reported as “most ECE-1-resistant”.
In the case of “HAEGTFTSDVSSYLEGQAAKEFIEWLKNGGPSSGAPPPS-NH2 [Chi2]”, the “In vitro peptide degradation by / resistance to ECE-1 (in words)” value is reported as “most ECE-1-resistant”.

Same assay, conditions: pH 5.5

In the case of CC[C@H](C)[C@H](NC(=O)[C@H](Cc1ccccc1)NC(=O)[C@H](CCC(=O)O)NC(=O)[C@H](CCCCN)NC(=O)[C@H](C)NC(=O)[C@H](C)NC(=O)[C@H](CCC(N)=O)NC(=O)CNC(=O)[C@H](CCC(=O)O)NC(=O)[C@H](CC(C)C)NC(=O)[C@H](Cc1ccc(O)cc1)NC(=O)[C@H](CO)NC(=O)[C@H](CO)NC(=O)[C@@H](NC(=O)[C@H](CC(=O)O)NC(=O)[C@H](CO)NC(=O)[C@@H](NC(=O)[C@H](Cc1ccccc1)NC(=O)[C@@H](NC(=O)CNC(=O)[C@H](CCC(=O)O)NC(=O)CNC(=O)[C@@H](N)Cc1cnc[nH]1)[C@@H](C)O)[C@@H](C)O)C(C)C)C(=O)N[C@@H](C)C(=O)N[C@@H](Cc1c[nH]c2ccccc12)C(=O)N[C@@H](CC(C)C)C(=O)N[C@H](C(=O)N[C@@H](CCCCN)C(=O)NCC(=O)N[C@@H](CCCNC(=N)N)C(N)=O)C(C)C [GLP-1-G2], the “In vitro peptide degradation by / resistance to ECE-1 (in words)” value is reported as “ECE-1-sensitive”.

Biological target: SNAP-GLP-1R (pSNAP-GLP-1R) on HEK293-SNAP-GLP-1R cells (UniProt P43220)
Experiment: FRET or BRET
Conditions: not given

Chain of SNAP-GLP-1R (pSNAP-GLP-1R) on HEK293-SNAP-GLP-1R cells (P43220 24-463): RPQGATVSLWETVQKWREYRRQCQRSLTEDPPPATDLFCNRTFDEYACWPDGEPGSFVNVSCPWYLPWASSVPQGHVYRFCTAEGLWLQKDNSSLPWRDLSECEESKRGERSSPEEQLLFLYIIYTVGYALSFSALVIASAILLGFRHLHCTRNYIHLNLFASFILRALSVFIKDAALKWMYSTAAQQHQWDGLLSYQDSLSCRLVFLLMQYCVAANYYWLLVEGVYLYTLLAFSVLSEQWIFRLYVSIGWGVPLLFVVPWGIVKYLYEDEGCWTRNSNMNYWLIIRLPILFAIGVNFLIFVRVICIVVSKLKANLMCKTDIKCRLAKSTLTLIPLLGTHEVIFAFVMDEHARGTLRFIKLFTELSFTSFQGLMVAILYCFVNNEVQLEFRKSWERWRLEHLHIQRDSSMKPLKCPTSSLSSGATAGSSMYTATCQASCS

Compared with “exendin-4(1-30), N-terminus D3 (asp3 derivative) (peptide)”, “Chi1, N-terminus D3 (asp3 derivative) (peptide)” is higher in Log Ki: -9.2 Log (M) for the first, -8.5 Log (M) for the second.

Going from “exendin-4, N-terminus D3 (asp3 derivative) (peptide)” to “exendin-4 (from UniProt P26349 48-87) (peptide)”, the Log Ki falls from -9.2 Log (M) to -9.5 Log (M).

Going from exendin-phe1 (peptide) to exendin-4(1-30) (peptide), the Log Ki falls from -7.3 Log (M) to -9 Log (M).

Compared with “exendin-4(1-30), N-terminus F1 (phe1 derivative) (peptide)”, “Chi1, N-terminus F1 (phe1 derivative) (peptide)” is higher in Log Ki: -7.5 Log (M) for the first, -6.4 Log (M) for the second.

“Chi1 (GLP-1 with the exendin-4 Trp-cage added to its C-terminus) (peptide)” was tested, and the Log Ki was -8.2 Log (M).
